Assay results taken from patent US20180214548A1 (SHANGHAI YUNYI HEALTHCARE AND TECHNOLOGY, published 2018).
One block for each binder: values may come before it.

Tests used:
[1] = biological target: T1, cyno monkey PD-1^ECD-hFc protein (cyno monkey, UniProt B0LAJ3 25-167); experiment: ELISA, coated cyno PD-1ECD-hFc
T1 construct: also called cyno PD-1^ECD-hFc; not shown: human IgG Fc fragment (hFc) and its junction to the ECD

[2] = biological target: T2, human PD-1^ECD-hFc protein (Immunogen A) (human, UniProt Q15116 25-167); experiment: ELISA, coated human PD-1ECD-hFc
T2 construct: also called PD-1-hFc; hPD-1^ECD-hFc; not shown: human IgG Fc fragment (hFc)
T2 sequence (Q15116 25-167): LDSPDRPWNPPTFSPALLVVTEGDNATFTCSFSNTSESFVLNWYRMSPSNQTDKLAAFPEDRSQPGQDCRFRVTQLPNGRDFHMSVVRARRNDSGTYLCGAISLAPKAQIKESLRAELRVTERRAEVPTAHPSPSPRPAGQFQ

[3] = biological target: T3, human PD-1, full length, on cells (human, UniProt Q15116 25-288); experiment: flow cytometry on CHO-K1-hPD-1 cells
T3 construct: whole, on cells; in the lymphocyte assays the natural PD-1 of human T cells/PBMCs; also called hPD-1; CHO-K1-hPD-1

[4] = biological target: T3, human PD-1, full length, on cells; experiment: flow cytometry on activated human PBMCs (MFI)
[5] = biological target: T2, human PD-1^ECD-hFc protein (Immunogen A); experiment: ELISA, coated protein, antibody concentration not given
[6] = biological target: CD28 (human, UniProt P10747 19-152); experiment: as above
Target sequence in this assay (P10747 19-152 limits assumed): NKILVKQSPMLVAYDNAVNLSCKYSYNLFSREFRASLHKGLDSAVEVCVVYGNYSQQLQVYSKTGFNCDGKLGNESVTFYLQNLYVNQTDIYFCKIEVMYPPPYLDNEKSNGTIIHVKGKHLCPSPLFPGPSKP

[7] = biological target: T4, B7.1 (human, UniProt P33681 35-242); experiment: as above
T4 sequence (looked up): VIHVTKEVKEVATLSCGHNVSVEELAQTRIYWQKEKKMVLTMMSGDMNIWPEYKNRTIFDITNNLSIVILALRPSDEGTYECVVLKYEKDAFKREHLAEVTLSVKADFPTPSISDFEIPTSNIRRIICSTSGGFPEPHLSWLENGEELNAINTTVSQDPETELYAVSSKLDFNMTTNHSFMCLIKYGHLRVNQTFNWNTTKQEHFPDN

[8] = biological target: T5, ICOS (human, UniProt Q9Y6W8 21-140, limits assumed); experiment: as above
T5 sequence (looked up): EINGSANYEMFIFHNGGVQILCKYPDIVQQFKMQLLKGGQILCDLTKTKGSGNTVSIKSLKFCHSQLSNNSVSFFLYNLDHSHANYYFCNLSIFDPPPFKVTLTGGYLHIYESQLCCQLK

[9] = biological target: T6, CTLA4 (human, UniProt P16410 37-162, limits assumed); experiment: as above
T6 sequence (looked up): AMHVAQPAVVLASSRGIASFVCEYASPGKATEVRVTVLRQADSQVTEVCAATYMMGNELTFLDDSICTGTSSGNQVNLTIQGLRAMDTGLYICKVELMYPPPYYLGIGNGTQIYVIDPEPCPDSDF

[10] = biological target: T7, NC-Fc; experiment: as above
T7 construct: seemingly a negative control Fc protein

[11] = biological target: T8, His-tagged human PD-1 ECD protein (human, UniProt Q15116 25-167); experiment: SPR Biacore T200, antibody captured by anti-human Fc, His-tagged hPD-1 ECD as analyte
T8 construct: also called His-tagged hPD-1 ECD; His-tagged PD-1^ECD; not shown: His tag
Procedure: Anti-human Fc IgG was immobilized on flow cells 1 and 2: HBS-EP+(10 mM HEPES, 150 mM NaCl, 3 mM EDTA, 0.05% P20, pH 7.4) was used as running buffer, and the immobilization of anti-human Fc IgG was carried out using the immobilization wizard template. Flow cells 1 and 2 of a Series S CM5 sensor chip were activated with freshly-mixed 50 mmol/L NHS and 200 mmol/L EDC. 20 ug/mL of anti-human Fc IgG diluted in 10 mM NaAC (pH 4.5) was injected into the activated flow cells 1 and 2. The remaining active coupling sites were blocked with 1M ethanolamine.
Recombinant His-tagged hPD-1 ECD protein was diluted to 50 nM, followed by four 2-fold serial dilutions with HBS-EP+ buffer. […] KD measurements were carried out with HBS-EP+ as the running buffer. Each antibody was injected over the CM5 sensor flow cell 2 with a flow rate of 10 uL/min to reach response 230 RU. Prepared His-tagged hPD-1 ECD protein was then injected over flow cells 1 and 2, at a flow rate of 30 uL/min for 180 sec. Buffer flow was maintained for 400 seconds for dissociation measurements (30 uL/min). To remove the tested antibody from the surface, 10 mM glycine-HCl pH 1.5 was injected for 20 seconds (30 uL/min). Flow cell 1 was used as reference flow cell. The above steps were repeated for each concentration of serially-diluted His-tagged PD-1^ECD protein. The KD value for each antibody was evaluated using Biacore T200 evaluation software 1.0, and the data was fit with a 1:1 binding model.

[12] = biological target: CD28 (human, UniProt P10747 19-152); experiment: ELISA on coated protein (Table 22)
Target sequence in this assay (P10747 19-152 limits assumed): as the sequence (P10747 19-152 limits assumed) above

[13] = biological target: T9, B7-1 (human, UniProt P33681 35-242); experiment: ELISA on coated protein (Table 22)
T9 sequence (looked up): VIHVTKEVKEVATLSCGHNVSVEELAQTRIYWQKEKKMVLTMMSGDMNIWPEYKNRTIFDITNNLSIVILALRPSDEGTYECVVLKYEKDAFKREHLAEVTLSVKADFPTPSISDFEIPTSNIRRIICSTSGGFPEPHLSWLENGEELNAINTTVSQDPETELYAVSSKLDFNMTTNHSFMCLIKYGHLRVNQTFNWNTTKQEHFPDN

[14] = biological target: T10, ICOS (human, UniProt Q9Y6W8 21-140, limits assumed); experiment: ELISA on coated protein (Table 22)
T10 sequence (looked up): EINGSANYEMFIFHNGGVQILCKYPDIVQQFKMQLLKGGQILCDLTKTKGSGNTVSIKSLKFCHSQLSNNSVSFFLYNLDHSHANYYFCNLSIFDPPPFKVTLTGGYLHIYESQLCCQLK

[15] = biological target: T11, CTLA4 (human, UniProt P16410 37-162, limits assumed); experiment: ELISA on coated protein (Table 22)
T11 sequence (looked up): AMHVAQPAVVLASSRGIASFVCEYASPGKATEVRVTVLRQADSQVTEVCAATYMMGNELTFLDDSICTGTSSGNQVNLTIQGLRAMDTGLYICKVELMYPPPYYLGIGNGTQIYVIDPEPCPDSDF

[16] = biological target: T12, full length human PD-1 on cells (human, UniProt Q15116 25-288); experiment: cell-based receptor ligand blocking assay (fully human antibodies), blocked ligand PD-L1
T12 construct: Also used here for PD-1 on human T cells/PBMC; also called CHO-K1-hPD-1; hPD-1

[17] = biological target: T13, human PD-1^ECD-hFc protein (Immunogen A) (human, UniProt Q15116 25-167); experiment: protein-based receptor ligand blocking assay (fully human antibodies), blocked ligand PD-L1
T13 construct: Biotinylated for the Octet assay; also called PD-1-hFc; hPD-1^ECD-hFc; not shown: human IgG Fc fragment (hFc)
Procedure: Purified PD-1^ECD-hFc (Example 2) was diluted with PBS to a final concentration of 1.0 ug/mL, and 100 uL diluted PD-1^ECD-hFc were added to each well of a 96-well plate that was then sealed with plastic film and incubated at 4° C. overnight. The plate was washed twice with wash buffer (PBS+0.01% (v/v) Tween 20) and incubated with blocking buffer (PBS+[…]) at room temperature for 2 hours. The blocking buffer was aspirated, and 50 uL purified anti-PD-1 antibodies from Example 2 were added to each well of 96-well plate. […] The plate was washed three times with wash buffer (PBS+0.01% (v/v) Tween 20). 100 uL HRP-conjugated streptavidin (Sigma) were then added to each well and incubated at 37° C. for 2 hours. The plate was then washed three times with wash buffer, and 100 uL TMB substrate were added to each well. After 30 minutes of incubation at room temperature, the reaction was stopped by adding 100 uL stop solution (0.1N HCl). The absorbance at OD450 nm was measured with an ELISA plate reader (384plus SpectraMax, Molecular Devices).
T13 sequence (Q15116 25-167): as the sequence (Q15116 25-167) above

[18] = biological target: T13, human PD-1^ECD-hFc protein (Immunogen A); experiment: protein-based receptor ligand blocking assay (fully human antibodies), blocked ligand PD-L2

T1 sequence (B0LAJ3 entry or part of it limits assumed): as the sequence (Q15116 25-167) above, with D2E, P10A, V19L, T35A, Q75R counted along it
T8 sequence (Q15116 25-167): as the sequence (Q15116 25-167) above
T3 sequence (Q15116 25-288): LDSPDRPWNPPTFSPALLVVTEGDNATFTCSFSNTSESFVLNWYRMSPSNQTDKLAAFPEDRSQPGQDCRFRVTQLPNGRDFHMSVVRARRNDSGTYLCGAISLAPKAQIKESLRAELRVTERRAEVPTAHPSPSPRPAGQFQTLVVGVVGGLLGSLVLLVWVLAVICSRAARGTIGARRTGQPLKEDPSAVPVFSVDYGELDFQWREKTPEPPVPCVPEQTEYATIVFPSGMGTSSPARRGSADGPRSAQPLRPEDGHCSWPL
T12 sequence (Q15116 25-288 limits assumed): as the sequence (Q15116 25-288) above

OD450 nm at 0 nM [1]: 0.06 OD450
OD450 nm at 0.0001 nM [1]: 0.06 OD450
OD450 nm at 0.001 nM [1]: 0.08 OD450
OD450 nm at 0.01 nM [1]: 0.2 OD450
OD450 nm at 0.1 nM [1]: 1.06 OD450
OD450 nm at 1 nM [1]: 2.32 OD450
OD450 nm at 10 nM [1]: 2.41 OD450
OD450 nm at 100 nM [1]: 2.45 OD450
OD450 nm at 0 nM [2]: 0.09 OD450
OD450 nm at 0.0001 nM [2]: 0.1 OD450
OD450 nm at 0.001 nM [2]: 0.12 OD450
OD450 nm at 0.01 nM [2]: 0.28 OD450
OD450 nm at 0.1 nM [2]: 1.34 OD450
OD450 nm at 1 nM [2]: 2.47 OD450
OD450 nm at 10 nM [2]: 2.44 OD450
OD450 nm at 100 nM [2]: 2.58 OD450
MFI at 0 nM [3]: 4.1 MFI
MFI at 0.01 nM [3]: 22.9 MFI
EC50 (read off the curve) [4]: ~0.2 nM
OD450 nm [5]: 3.01 OD450
OD450 nm [6]: 0.1 OD450
OD450 nm [7]: 0.37 OD450
OD450 nm [8]: 0.38 OD450
OD450 nm [9]: 0.32 OD450
OD450 nm [10]: 0.41 OD450
Kd [11]: 0.936 nM
koff [11]: 9.35e-05 s⁻¹
kon [11]: 100000 M⁻¹ s⁻¹
B1: fully human anti-PD-1 antibody 76G5B3 (antibody, human IgG4 S228P, kappa, V domains shown)
VH: QVQLVESGGGVVQPGRSLRLSCAASGFTFSDYGFHWVRQAPGKGLEWVAVIWYDGSNEYYTDSVKGRFTISRDNSKNTLYLQMNSLRAEDTAMYFCVVNPFDYWGQGTLVTVSS
VL: DIQMTQSPSSLSAFVGDRVTITCRASQGINHYLAWYQQKPGKAPNLLILAASTLLSGVPSRFGGRGSGTDFTLIISSLQPEDVATYYCQKYDSAPYTFGQGTKLEIKR

binding result [12]: no binding
binding result [13]: no binding
binding result [14]: no binding
binding result [15]: no binding
IC50 (read off the curve) [16]: ~0.3 µg/mL
IC50 (read off the curve) [17]: ~2 nM
IC50 (read off the curve) [18]: ~8 nM
B2: fully human anti-PD-1 antibody 76G5B3 (antibody, human IgG4 S228P, kappa, V domains shown)
VH: QVQLVESGGGVVQPGRSLRLSCAASGFTFSDYGFHWVRQAPGKGLEWVAVIWYDGSNEYYTDSVKGRFTISRDNSKNTLYLQMNSLRAEDTAMYFCVVNPFDYWGQGTLVTVSS
VL: DIQMTQSPSSLSAFVGDRVTITCRASQGINHYLAWYQQKPGKAPNLLILAASTLLSGVPSRFGGRGSGTDFTLIISSLQPEDVATYYCQKYDSAPYTFGQGTKLEIKR
notes: also called 76G5B3 (fully human, IgG4 S228P / kappa)

binding result [12]: no binding
binding result [13]: no binding
binding result [14]: no binding
binding result [15]: no binding
B3: fully human anti-PD-1 antibody 223G6B5 (antibody, human IgG4, V domains shown)
VH: QVQLQESGPGLVKPSETLSLTCAVSGHSIRGSYFWGWIRQPPGRGLEWIGSIYHSGSTYTNPSLKSRATISVDTSKNQFSLKLNSVTAADTAVYYCARDLDIATTRDYWGQGTLVTVSS
VL: DIQLTQSPSFLSASVGDRVTIICRASQGINNYLAWYQQKPGKAPKLLIYAASTLQSGVPSRFSGSGSGTEFTLTISSLQPEDFATYYCQQLDSYPRTFGQGTKVEIKR
notes: also called 223G6B5 (fully human, IgG4 S228P / kappa)
